B1: Isocitrate dehydrogenase [NADP] (Bacillus subtilis), P39126 (parent)
chain: MAQGEKITVSNGVLNVPNNPIIPFIEGDGTGPDIWNAASKVLEAAVEKAYKGEKKITWKEVYAGEKAYNKTGEWLPAETLDVIREYFIAIKGPLTTPVGGGIRSLNVALRQELDLFVCLRPVRYFTGVPSPVKRPEDTDMVIFRENTEDIYAGIEYAKGSEEVQKLISFLQNELNVNKIRFPETSGIGIKPVSEEGTSRLVRAAIDYAIEHGRKSVTLVHKGNIMKFTEGAFKNWGYELAEKEYGDKVFTWAQYDRIAEEQGKDAANKAQSEAEAAGKIIIKDSIADIFLQQILTRPNEFDVVATMNLNGDYISDALAAQVGGIGIAPGANINYETGHAIFEATHGTAPKYAGLDKVNPSSVILSGVLLLEHLGWNEAADLVIKSMEKTIASKVVTYDFARLMDGATEVKCSEFGEELIKNMD
partner: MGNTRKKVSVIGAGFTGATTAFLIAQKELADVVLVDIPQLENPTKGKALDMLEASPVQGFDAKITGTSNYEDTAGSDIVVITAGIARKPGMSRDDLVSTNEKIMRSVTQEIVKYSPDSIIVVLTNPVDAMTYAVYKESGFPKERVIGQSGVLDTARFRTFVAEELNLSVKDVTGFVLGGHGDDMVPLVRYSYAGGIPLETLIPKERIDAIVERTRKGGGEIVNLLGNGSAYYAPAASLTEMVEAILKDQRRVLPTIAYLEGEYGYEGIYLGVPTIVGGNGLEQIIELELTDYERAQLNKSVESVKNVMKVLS

Variants of: B1
Conditions: with mdh_bacsu mdh

| effect of a mutation on the interaction | Variant |
| --- | --- |
| increasing interaction | MAQGEKITVSNGVLNVPNNPIIPFIEGDGTGPDIWNAASKVLEAAVEKAYKGEKKITWKEVYAGEKAYNKTGEWLPAETLDVIREYFIAIKGPLTTPVGGGIRPLNVALRQELDLFVCLRPVRYFTGVPSPVKRPEDTDMVIFRENTEDIYAGIEYAKGSEEVQKLISFLQNELNVNKIRFPETSGIGIKPVSEEGTSRLVRAAIDYAIEHGRKSVTLVHKGNIMKFTEGAFKNWGYELAEKEYGDKVFTWAQYDRIAEEQGKDAANKAQSEAEAAGKIIIKDSIADIFLQQILTRPNEFDVVATMNLNGDYISDALAAQVGGIGIAPGANINYETGHAIFEATHGTAPKYAGLDKVNPSSVILSGVLLLEHLGWNEAADLVIKSMEKTIASKVVTYDFARLMDGATEVKCSEFGEELIKNMD [S104P] |

— IntAct's records for PubMed 24325460
